Source: patent publication US20220356256A1 (published 2022)

How the values were obtained:
Assay in all cases: IF staining, CHO cells
[1] = target: T1, FZD3 expressed on CHO cells (UniProt Q9NPG1 23-136, limits assumed)
T1 construct: As m62
T1 sequence (looked up): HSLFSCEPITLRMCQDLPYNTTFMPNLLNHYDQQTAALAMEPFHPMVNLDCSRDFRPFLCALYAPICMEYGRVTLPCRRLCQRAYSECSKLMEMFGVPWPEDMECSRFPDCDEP

[2] = target: T2, FZD6 expressed on CHO cells (UniProt O60353 19-132, limits assumed)
T2 construct: As m62
T2 sequence (looked up): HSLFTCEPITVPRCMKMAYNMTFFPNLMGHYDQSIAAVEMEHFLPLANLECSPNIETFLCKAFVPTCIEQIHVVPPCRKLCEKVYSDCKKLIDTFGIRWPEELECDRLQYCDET

[3] = target: T3, FZD10 expressed on CHO cells (UniProt Q9ULW2 29-150, limits assumed)
T3 construct: As m62
T3 sequence (looked up): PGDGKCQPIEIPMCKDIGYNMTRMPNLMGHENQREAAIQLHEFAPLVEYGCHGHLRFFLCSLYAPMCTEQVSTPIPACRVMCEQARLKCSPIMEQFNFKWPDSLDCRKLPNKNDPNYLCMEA

binding result [1]: no binding
binding result [2]: no binding
binding result [3]: no binding
B1: Fab 5017 (Fab, V domains shown)
VH: EVQLVESGGGLVQPGGSLRLSCAASGFNLYYTDMHWVRQAPGKGLEWVASISLFFGYVSYADSVKGRFTISADTSKNTAYLQMNSLRAEDTAVYYCARYLAMDYWGQGTLVTVSS
VL: DIQMTQSPSSLSASVGDRVTITCRASQSVSSAVAWYQQKPGKAPKLLIYSASSLYSGVPSRFSGSRSGTDFTLTISSLQPEDFATYYCQQAAYHWPPLFTFGQGTKVEIKR
notes: Tested as purified Fab; also called 4A1
